How the values were obtained:
Details in all cases: reference: EGFP-HURP wild type; sites S725
GP73 = GP73 (UniProt Q8NBJ4); test: co-IP of EGFP-HURP with GP73
GM130 = GM130 (UniProt Q08379); test: co-IP of EGFP-HURP with GM130
GRASP65 = GRASP65 (UniProt Q9BQQ3); test: co-IP of EGFP-HURP with GRASP65

Measured: binding against the reference

HURP (from UniProt Q15398) EGFP-HURP 725A
lost: all assays above

— article PMC10294536
